In patent US20160193299A1, “MODIFIED NUCLEOSIDE, NUCLEOTIDE, AND NUCLEIC ACID COMPOSITIONS” (Moderna Therapeutics, Inc., priority 2011, published 2016):

Columns and labels:
[1] = tested on: G-CSF; assay: Example 18 time course in vivo study, serum G-CSF ELISA; details: mice IV
Protocol: (§1) Formulations, listed in Table 31, were characterized by particle size, zeta potential, and encapsulation.
LNP formulations, shown in Table 31 (above), were administered to mice (n=5) intravenously (IV) at a single modified mRNA dose of 0.5, 0.05 or 0.005 mg/kg. The mice were bled at 8 hours, 24 hours, 72 hours and 6 days after they were administered with G-CSF or EPO modified mRNA formulations to determine protein expression using ELISA.

[2] = tested on: G-CSF; assay: Example 19 LNP formulations in mice, serum G-CSF ELISA; type: in vivo; details: for G-CSF Serum Concentration: mice IV (n=4); for G-CSF protein expression detectable at least out to: mice IV
Protocol: as §1
LNP formulations, shown in Table 31 (above), were administered to mice (n=4) intravenously (IV) at a single modified mRNA dose 0.05 mg/kg or 0.005 mg/kg. There was also 3 control groups of mice (n=4) that were untreated. The mice were bled at 2 hours, 8 hours, 24 hours, 48 hours and 72 hours after they were administered with G-CSF or EPO modified mRNA formulations to determine the protein expression. Protein expression of G-CSF and EPO were determined using ELISA.

[3] = tested on: G-CSF; assay: Examples 21-22 non-human primate in vivo study, serum G-CSF ELISA; set-up: species or system cynomolgus monkey; details: for Average Serum Conentration: G-CSF
Protocol: as §1
LNP formulations, shown in Table 31 (above), were administered to non-human primates (NHP) (cynomolgus monkey) (n=2) as a bolus intravenous injection (IV) over approximately 30 seconds using a hypodermic needle, which may be attached to a syringe/abbocath or butterfly if needed. The NHP were administered a single modified mRNA IV dose of 0.05 mg/kg of EPO or G-CSF or 0.005 mg/kg of EPO in a dose volume of 0.5 mL/kg. The NHPs were bled 5-6 days before dosing with the modified mRNA LNP formulations to determine protein expression in the serum and a baseline complete blood count. After administration with the modified mRNA formulation the NHP were bled at 8, 24, 48 and 72 hours to determined protein expression. At 24 and 72 hours after administration the complete blood count of the NHP was also determined. Protein expression of G-CSF and EPO was determined by ELISA. Urine from the NHPs was collected over the course of the entire experiment and analyzed to evaluate clinical safety. Samples were collected from the NHPs after they were administered with G-CSF or EPO modified mRNA formulations to determine protein expression using ELISA. Clinical chemistry, hematology, urinalysis and cytokines of the non-human primates were also analyzed.
LNP formulations, shown in Table 31 (above), were administered to non-human primates (NHP) (cynomolgus monkey) (n=2) as intravenous injection (IV). The NHP were administered a single modified mRNA IV dose of 0.5 mg/kg, 0.05 mg/kg or 0.005 mg/kg of G-CSF or EPO in a dose volume of 0.5 mL/kg. The NHPs were bled before dosing with the modified mRNA LNP formulations to determine protein expression in the serum and a baseline complete blood count. After administration with the G-CSF modified mRNA formulation the NHP were bled at 8, 24, 48 and 72 hours to determined protein expression. After administration with the EPO modified mRNA formulation the NHP were bled at 8, 24, 48, 72 hours and 7 days to determined protein expression.
Samples collected from the NHPs after they were administered with G-CSF or EPO modified mRNA formulations were analyzed by ELISA to determine protein expression. Neutrophil and reticulocyte count was also determined pre-dose, 24 hours, 3 days, 7 days, 14 days and 18 days after administration of the modified G-CSF or EPO formulation.

[4] = tested on: neutrophil count; assay: Example 40 multi-site IM and SC administration of G-CSF mRNA, neutrophil count; type: in vivo; details: mice, intramuscular, day 3
Protocol: Injection of four doses or 2×50 ug (two sites) daily for three days (24 hrs interval) was performed. The fourth dose was administered 6 hrs before blood collection and CBC analysis. […] The mice were bled at 72 hours after the first mRNA injection (6 hours after the last mRNA dose) to determine the effect of mRNA-encoded human G-CSF on the neutrophil count. The dosing regimen is shown in Table 63 as are the resulting neutrophil counts (thousands/uL). In Table 63, an asterisks (*) indicate statistical significance at p<0.05.

B1: G-CSF: human G-CSF mRNA SEQ ID NO: 6, polyA ~160 nt, Cap1, fully modified with 5-methylcytosine and pseudouridine (nucleic acid, listed as Homo sapiens)
chain: GGGAAAUAAGAGAGAAAAGAAGAGUAAGAAGAAAUAUAAGAGCCACCAUGGCCGGUCCCGCGACCCAAAGCCCCAUGAAACUUAUGGCCCUGCAGUUGCUGCUUUGGCACUCGGCCCUCUGGACAGUCCAAGAAGCGACUCCUCUCGGACCUGCCUCAUCGUUGCCGCAGUCAUUCCUUUUGAAGUGUCUGGAGCAGGUGCGAAAGAUUCAGGGCGAUGGAGCCGCACUCCAAGAGAAGCUCUGCGCGACAUACAAACUUUGCCAUCCCGAGGAGCUCGUACUGCUCGGGCACAGCUUGGGGAUUCCCUGGGCUCCUCUCUCGUCCUGUCCGUCGCAGGCUUUGCAGUUGGCAGGGUGCCUUUCCCAGCUCCACUCCGGUUUGUUCUUGUAUCAGGGACUGCUGCAAGCCCUUGAGGGAAUCUCGCCAGAAUUGGGCCCGACGCUGGACACGUUGCAGCUCGACGUGGCGGAUUUCGCAACAACCAUCUGGCAGCAGAUGGAGGAACUGGGGAUGGCACCCGCGCUGCAGCCCACGCAGGGGGCAAUGCCGGCCUUUGCGUCCGCGUUUCAGCGCAGGGCGGGUGGAGUCCUCGUAGCGAGCCACCUUCAAUCAUUUUUGGAAGUCUCGUACCGGGUGCUGAGACAUCUUGCGCAGCCGUGAAGCGCUGCCUUCUGCGGGGCUUGCCUUCUGGCCAUGCCCUUCUUCUCUCCCUUGCACCUGUACCUCUUGGUCUUUGAAUAAAGCCUGAGUAGGAAG
modifications: polyA ~160, Cap1, 5mC/pseudouridine modified
- G-CSF protein expression detectable out to ([1]; 0.005 mg/kg and 0.05 mg/kg): 72 h
- G-CSF Serum Concentration ([1]; 0.005 mg/kg, 8 hours): 11,550.6 pg/ml
- G-CSF Serum Concentration ([1]; 0.005 mg/kg, 24 hours): 5,068.9 pg/ml
- G-CSF Serum Concentration ([1]; 0.05 mg/kg, 8 hours): 462,312.5 pg/ml
- G-CSF Serum Concentration ([1]; 0.05 mg/kg, 24 hours): 80,903.8 pg/ml
- G-CSF Serum Concentration ([1]; 0.5 mg/kg, 8 hours): >1,250,000 pg/ml
- G-CSF Serum Concentration ([1]; 0.5 mg/kg, 24 hours): 495,812.5 pg/ml
- G-CSF Serum Concentration ([1]; 0.5 mg/kg, 72 hours): 1,325.6 pg/ml
- G-CSF Serum Concentration ([2]; 0.005 mg/kg, 2 hours): 3,447.8 pg/ml
- G-CSF Serum Concentration ([2]; 0.005 mg/kg, 8 hours): 11,454.0 pg/ml
- G-CSF Serum Concentration ([2]; 0.005 mg/kg, 24 hours): 4,960.2 pg/ml
- G-CSF Serum Concentration ([2]; 0.005 mg/kg, 48 hours): 686.4 pg/mL
- G-CSF Serum Concentration ([2]; 0.05 mg/kg, 2 hours): 20,951.4 pg/ml
- G-CSF Serum Concentration ([2]; 0.05 mg/kg, 8 hours): 70,012.8 pg/ml
- G-CSF Serum Concentration ([2]; 0.05 mg/kg, 24 hours): 19,356.2 pg/ml
- G-CSF Serum Concentration ([2]; 0.05 mg/kg, 48 hours): 1,963.0 pg/ml
- G-CSF Serum Concentration ([2]; 0.05 mg/kg, 72 hours): 47.3 pg/mL
- G-CSF protein expression detectable at least out to ([2]; 0.005 mg/kg): ≥ 48 h
- G-CSF protein expression detectable at least out to ([2]; 0.05 mg/kg): ≥ 72 h
- Female NHP Serum G-CSF Concentration ([3]; IV 0.005 mg/kg, 8 hours): 559 pg/mL
- Male NHP Serum G-CSF Concentration ([3]; IV 0.005 mg/kg, 8 hours): 700 pg/mL
- Female NHP Serum G-CSF Concentration ([3]; IV 0.005 mg/kg, 24 hours): 155 pg/mL
- Male NHP Serum G-CSF Concentration ([3]; IV 0.005 mg/kg, 24 hours): <39 pg/mL
- Female NHP Serum G-CSF Concentration ([3]; IV 0.005 mg/kg, 48 hours): <39 pg/mL
- Male NHP Serum G-CSF Concentration ([3]; IV 0.005 mg/kg, 48 hours): <39 pg/mL
- Female NHP Serum G-CSF Concentration ([3]; IV 0.005 mg/kg, 72 hours): <39 pg/mL
- Male NHP Serum G-CSF Concentration ([3]; IV 0.005 mg/kg, 72 hours): <39 pg/mL
- Female NHP Serum G-CSF Concentration ([3]; IV 0.005 mg/kg, Pre-bleed): <39 pg/mL
- Male NHP Serum G-CSF Concentration ([3]; IV 0.005 mg/kg, Pre-bleed): <39 pg/mL
- Female NHP Serum G-CSF Concentration ([3]; IV 0.05 mg/kg, 24 hours): 722 pg/mL
- Male NHP Serum G-CSF Concentration ([3]; IV 0.05 mg/kg, 24 hours): 307 pg/mL
- Female NHP Serum G-CSF Concentration ([3]; IV 0.5 mg/kg, 8 hours): 43,525 pg/ml
- Male NHP Serum G-CSF Concentration ([3]; IV 0.5 mg/kg, 8 hours): 43,594 pg/ml
- Female NHP Serum G-CSF Concentration ([3]; IV 0.5 mg/kg, 24 hours): 11,374 pg/ml
- Male NHP Serum G-CSF Concentration ([3]; IV 0.5 mg/kg, 24 hours): 3,628 pg/ml
- Female NHP Serum G-CSF Concentration ([3]; IV 0.5 mg/kg, 48 hours): 1,100 pg/ml
- Male NHP Serum G-CSF Concentration ([3]; IV 0.5 mg/kg, 48 hours): 833 pg/mL
- Female NHP Serum G-CSF Concentration ([3]; IV 0.5 mg/kg, 72 hours): <39 pg/mL
- Male NHP Serum G-CSF Concentration ([3]; IV 0.5 mg/kg, 72 hours): 306 pg/mL
- Female NHP Serum G-CSF Concentration ([3]; IV 0.5 mg/kg, Pre-bleed): <39 pg/mL
- Male NHP Serum G-CSF Concentration ([3]; IV 0.5 mg/kg, Pre-bleed): <39 pg/mL
- Average Serum Conentration ([3]; NHP, IV 0.05 mg/kg, 8 hours): 2,506 pg/ml
- Average Serum Conentration ([3]; NHP, IV 0.05 mg/kg, 24 hours): 515 pg/mL
- Average Serum Conentration ([3]; NHP, IV 0.05 mg/kg, 48 hours): 0 pg/mL
- Average Serum Conentration ([3]; NHP, IV 0.05 mg/kg, 72 hours): 0 pg/mL
- Average Serum Conentration ([3]; NHP, IV 0.05 mg/kg, Pre-bleed): 0 pg/mL
- G-CSF protein expression seen out to ([3]; NHP, IV 0.05 mg/kg): 24 h
- G-CSF protein expression not detected beyond ([3]; NHP, IV 0.5, 0.05, 0.005 mg/kg (Table 36)): ≤ 72 h
- increase in neutrophil count above control [4]: four fold increase
